This passage reports Kd results from PMC5986701, “A quantitative characterization of interaction between prion protein with nucleic acids”.

Series [1] deals with T1, alpha-PrP (human recombinant prion protein) (human, UniProt P04156 23-230). As to the kind of experiment: fluorescence anisotropy; pH 5. (Polarisation of emitted light reports the rotation of a fluorescent probe.)
In series [2] the target is T1, alpha-PrP (human recombinant prion …). As to the kind of experiment: fluorescence anisotropy; pH 7.2.

B1: Mm38 (structured_RNA)
RNA: CAGGGUGGCACCUGGGGGCAGCCCCACGGUGGUGGCUG
In the case of B1, the Kd in series [1] (pseudoknot) is 3820 ± 400 nM.

B2: RQ11+12 (structured_RNA)
RNA: GGGGUUUCCAACCGGAAUUUGAGGGAUGCCUAGGCAUCCCCCGUGCGUCCCUUUACGAGGGAUUGUCGACUCUAGUCGACGUCUGGGCGAAAAAUGUACGAGAGGACCUUUUCGGUACAGACGGUACCUGAGGGAUGCCUAGGCAUCCCCGCGCGCCGGUUUCGGACCUCCAGUGCGUGUUACCGCACUGUCGACCC
For the molecule B2, the Kd in series [2] stood at 2200 ± 1500 nM.

B3: RQT157 (RQ157) (structured_RNA)
RNA: GGGGUUUCGAACCGGAAUUUGAGGGAUGCCUAGGCAUCCCCCGUGCGUCCCUUUACGAGGGAUUGUCGACUCUAGAGGAUCCGGUACCUGAGGGAUGCCUAGGCAUCCCCGCGCGCCGGUUUCGGACCUCCAGUGCGUGUUACCGCACUGUCGACCC
B3: the Kd in series [2] turned out to be 2890 ± 1500 nM.

B4: MNV (structured_RNA)
RNA: GGGUUCAUAGCCUAUUCGGCUUUUAAAGGACCUUUUUCCCUCGCGUAGCUAGCUACGCGAGGUGACCCCCCGAAGGGGGGUGCCCC
Consider B4, for which the Kd in series [2] was 4150 ± 610 nM.

B5: Lef-DNA (dsDNA)
DNA 1: GAGCTTCAAAGGGTG
DNA 2: CACCCTTTGAAGCTC
For the molecule B5, the Kd in series [2] is 5730 ± 570 nM; in series [1] it was 1250 ± 320 nM.

B6: NC-DNA (dsDNA)
DNA 1: GACTTGTGGAAAATCTCTAGCAGTGCAT
DNA 2: ATGCACTGCTAGAGATTTTCCACAAGTC
Consider B6, for which the Kd in series [2] amounted to 1290 ± 210 nM; in series [1], 1110 ± 230 nM.

B7: Ym44 (structured_RNA)
RNA: GUCAAGGACAAGGUCAAGGUCAAGGUUCUUUUACUGCUUUGGGC
For B7, the Kd in series [2] (pseudoknot) was found to be 1790 ± 570 nM; in series [1] (pseudoknot) it was 1630 ± 400 nM.

B8: Cm47 (Cm48 in Table 2) (structured_RNA)
RNA: GCCCCAUGGAGGUGGCUGGGGCCAGCCUCAUGGAGGUGGCUGGGGC
On to B8, for which the Kd turned out to be 1610 ± 400 nM in series [2] (pseudoknot) and 1510 ± 350 nM in series [1] (pseudoknot).

B9: Hm45 (structured_RNA)
RNA: GCCUCAUGGUGGUGGCUGGGGGCAGCCUCAUGGUGGUGGCUGGGG
B9: the Kd was determined as 3340 ± 150 nM in series [2] (pseudoknot) and 2900 ± 410 nM in series [1] (pseudoknot).

One may read the Kd as the constant that tells how readily two partners part at equilibrium.
